Earlier results, collected in paper PMC2921697.

Legend:
[1] = target: Barnase (denatured) (Bacillus amyloliquefaciens) (UniProt P00648); assay: H/D exchange NMR
[2] = target: prion protein (denatured recombinant) (UniProt P04156)

Substance: GroEL (from UniProt P0A6F5)
- Kd [1]: 0.05 µM

Substance: Hsp60 (from UniProt P10809)
- Kd [2]: 0.0015 µM

Substance: SecB (from UniProt P0AG86)
- Kd [1]: 0.05 µM
